{"source": "paper PMC10558600", "key": {"[1]": {"molecular_target": "Aedes aegypti membrane-bound alkaline phosphatase (Aa-mALP) (Aedes aegypti)", "assay": "ELISA"}, "[2]": {"molecular_target": "Aedes aegypti membrane-bound alkaline phosphatase (Aa-mALP) (Aedes aegypti)", "assay": "ELISA", "remark": "listed apart in the source"}}, "note": "Where two headings read alike, the source gives them in different places.", "data": [{"substance": "65 kDa trypsin-activated Cry4Ba-R203Q toxin (natural protein)", "values": [{"measurement": "Kd", "setting": "[1]", "value": 76.5, "unit": "nM"}, {"measurement": "Kd", "setting": "[2]", "value": 76.2, "unit": "nM"}]}]}
